Results on three substances are retold here after PMC10354202.

Experiment [1] concerns the target actin from rabbit skeletal muscle (rabbit) (UniProt P68135).
Experiment [2] addresses (Ig32)2-(R3^IVVI)-(Ig32)2 polyprotein, talin R3 domain with the IVVI mutation. Put plainly: single-molecule magnetic tweezers; talin R3 polyprotein tethered between glass and bead; vinculin allowed to bind at 8.5 pN for a variable time, then a 40 pN pulse to force dissociation; unbinding times at 40 pN (square-root histogram); PBS with 10 mM ascorbic acid, pH 7.3.
Experiment [3] shares this target. Put plainly: single-molecule magnetic tweezers; talin R3 polyprotein tethered between glass and bead; vinculin in solution (20 nM FLV); constant higher forces (12.5 pN, 15 pN; above ~10 pN), reversible binding and unbinding steps; unbinding rates against force fitted to the Bell-Evans model; PBS with 10 mM ascorbic acid, pH 7.3.
The target is the same in experiment [4]. Put plainly: single-molecule magnetic tweezers; talin R3 polyprotein tethered between glass (HaloTag) and streptavidin-coated bead (biotinylated AviTag); vinculin in solution (20 nM FLV); constant low force (~8.5 pN, up to ~9-10 pN); PBS with 10 mM ascorbic acid, pH 7.3; Kd from the paper's kinetic model.
Experiment [5] has the same target. Put plainly: magnetic tweezers. The following applies: parent: est. 9 s, read off a plot.

full-length human vinculin, wild type, sequence (P18206 other isoform, or with tags, fused parts or gaps): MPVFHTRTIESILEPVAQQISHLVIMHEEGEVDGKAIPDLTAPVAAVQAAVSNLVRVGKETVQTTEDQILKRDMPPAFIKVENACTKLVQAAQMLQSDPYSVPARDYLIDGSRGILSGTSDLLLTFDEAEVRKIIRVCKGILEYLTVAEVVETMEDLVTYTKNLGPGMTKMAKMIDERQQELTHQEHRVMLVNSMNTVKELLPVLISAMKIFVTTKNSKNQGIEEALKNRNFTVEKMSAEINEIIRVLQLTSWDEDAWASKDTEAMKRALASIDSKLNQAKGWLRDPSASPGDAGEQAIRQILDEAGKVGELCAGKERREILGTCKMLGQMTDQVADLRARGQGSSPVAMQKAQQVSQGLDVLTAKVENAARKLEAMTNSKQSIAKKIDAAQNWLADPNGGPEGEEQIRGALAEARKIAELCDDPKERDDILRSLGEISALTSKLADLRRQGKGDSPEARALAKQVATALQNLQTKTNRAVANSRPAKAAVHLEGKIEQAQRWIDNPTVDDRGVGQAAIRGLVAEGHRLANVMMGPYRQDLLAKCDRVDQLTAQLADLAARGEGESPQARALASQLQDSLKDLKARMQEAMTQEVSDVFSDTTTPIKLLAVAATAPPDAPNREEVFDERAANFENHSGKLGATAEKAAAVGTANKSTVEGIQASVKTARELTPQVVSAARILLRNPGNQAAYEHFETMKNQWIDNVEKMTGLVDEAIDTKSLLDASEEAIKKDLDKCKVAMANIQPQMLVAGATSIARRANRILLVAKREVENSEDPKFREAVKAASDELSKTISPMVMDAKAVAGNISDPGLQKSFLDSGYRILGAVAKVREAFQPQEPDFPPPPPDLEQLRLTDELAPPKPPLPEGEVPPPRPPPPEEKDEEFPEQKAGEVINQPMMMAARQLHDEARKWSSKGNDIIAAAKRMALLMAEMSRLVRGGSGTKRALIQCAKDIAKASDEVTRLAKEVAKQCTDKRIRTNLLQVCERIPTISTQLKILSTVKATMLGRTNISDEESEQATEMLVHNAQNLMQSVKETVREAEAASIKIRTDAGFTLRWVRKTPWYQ

With “full-length human vinculin K944A-R945A-D1013A-E1015A-E986A (5M) (from UniProt P18206-2 1-1066) (natural protein)”, the ratio of bundled actin of 5M against that of the 4M variant, TIRF microscopy, no talin-VBS1 in experiment [1] stood at 1.4 fold over 4M.
In experiment [2], “full-length human vinculin, wild type (from UniProt P18206-2 1-1066) (natural protein)” registered a timescale of maturation from the weak to the stable bound state of 37 s; an unbinding time at 40 pN, stronger binding mode (t2) of 7.4 s; an unbinding time at 40 pN, weak binding mode (t1) of 0.4 s. In experiment [3], the Kd, forces above ~10 pN is 5 nM; the k0, intrinsic off-rate (Bell-Evans fit of the unbinding rates, zero force) was found to be 0.0066 s⁻¹; the unbinding rate of Fig. 1G extrapolated to ~8.5 pN is 0.01 s⁻¹. Besides, in experiment [4], the Kd, initial bound state, low forces (up to ~9-10 pN) was found to be 0.2 nM; the Kd, mature bound state, low forces (up to ~9-10 pN) came out at 0.004 nM; the timescale of unbinding at ~8.5 pN was 1 hour.
Regarding “full-length human vinculin, wild type (from UniProt P18206-2) T12”, the other: average unbinding time at 40 pN in experiment [5] stood at 20 s.
